Positions count from the first letter of the chain named.
T1: human mesothelin Region IAB Y318A mutant (human, UniProt Q13421 296-359)
T1 chain: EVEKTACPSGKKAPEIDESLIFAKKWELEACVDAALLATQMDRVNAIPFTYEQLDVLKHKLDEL

T2: human mesothelin Region IAB (296-359) (human, UniProt Q13421 296-359)
T2 construct: also called IAB domain
T2 chain: T1 chain with A23Y

T3: human mesothelin Fragment 1 (residues 296-390) (human, UniProt Q13421 296-390)
T3 construct: also called Region I
T3 chain: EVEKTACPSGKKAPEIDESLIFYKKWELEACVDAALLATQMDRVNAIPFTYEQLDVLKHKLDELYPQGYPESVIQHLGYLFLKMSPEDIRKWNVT

B1: A101 camel single-domain (VHH) monoclonal antibody (VHH)
VHH: QVQLVESGGGTVQAGGSLKLACAASGLPRTYNVMGWFRQAPGKEREGVAIIYTTTGATYYRDSVKGRATISQDNAKKSVSLQMNSLRPEDTAIYYCVARQPNSGPWEYWGQGTQVTVSS
notes: Isolated from a camel VHH phage display library; also called A101 antibody; A101 anti-mesothelin VHH antibody
B2: G8 camel single-domain (VHH) monoclonal antibody (VHH)
VHH: QVKLEESGGGSVQAGGSLRLSCTTSGYTNSYKWMGWFRQAPGQEREGVAVIYTGNDRTYYSDSVKGRFTISRDNAKNMIYLDMTRLRPEDSAVYECAIGHDGAWRYWGQGTQVTVSS
notes: Isolated from a camel VHH phage display library; also called G8 antibody; G8 anti-mesothelin VHH antibody

How the values were obtained:
[1] = biological target: T1, human mesothelin Region IAB Y318A mutant; assay: ELISA on Region IAB mutant Y318A, VHH concentration not given
[2] = biological target: T2, human mesothelin Region IAB (296-359); assay: ELISA on mesothelin Region IAB, VHH concentration not given
[3] = biological target: T3, human mesothelin Fragment 1 (residues …); assay: ELISA on mesothelin Region I, VHH concentration not given

Binder | binding result [1] | binding result [2] | binding result [3]
B1 | no binding | binds | binds
B2 | no binding | binds | binds
